According to PMC6572768, “THETA system allows one-step isolation of tagged proteins through temperature-dependent protein–peptide interaction” (Communications Biology, 2019):

T1: GST-cCRY4CCE (chicken)
T1 construct: chicken cryptochrome 4 (cCRY4) C-terminal region, Asp470-Thr529; also called cCRY4 C-terminal extension (CCE)
T1 chain: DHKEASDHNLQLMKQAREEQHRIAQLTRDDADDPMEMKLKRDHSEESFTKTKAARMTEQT

T2: recombinant chicken cryptochrome 4, full-length, untagged (chicken)
T2 construct: chicken cryptochrome 4 (cCRY4); last residue Thr529; calculated molecular mass 61,063 Da; also called cCRY4; non-tagged cCRY4; source: budding yeast MaV203, overexpressed, in soluble extract
T2 chain: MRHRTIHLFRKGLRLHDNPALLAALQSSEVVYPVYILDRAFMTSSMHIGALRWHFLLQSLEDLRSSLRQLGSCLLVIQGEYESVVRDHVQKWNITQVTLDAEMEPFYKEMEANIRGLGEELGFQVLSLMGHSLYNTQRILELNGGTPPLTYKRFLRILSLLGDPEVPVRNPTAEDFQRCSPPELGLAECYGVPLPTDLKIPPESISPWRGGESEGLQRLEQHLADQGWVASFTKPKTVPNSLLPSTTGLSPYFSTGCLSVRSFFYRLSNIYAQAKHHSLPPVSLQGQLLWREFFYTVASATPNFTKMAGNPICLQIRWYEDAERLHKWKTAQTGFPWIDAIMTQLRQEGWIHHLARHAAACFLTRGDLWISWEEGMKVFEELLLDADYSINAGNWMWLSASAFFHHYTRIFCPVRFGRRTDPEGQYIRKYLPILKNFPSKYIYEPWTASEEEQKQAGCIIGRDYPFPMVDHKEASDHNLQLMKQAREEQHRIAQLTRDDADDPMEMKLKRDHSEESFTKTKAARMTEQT


Tests used:
[1] = biological target: C13 monoclonal antibody (mouse); assay: ELISA; indirect competitive ELISA at 4, 15, 26 and 37 °C; antibody mixed with serially diluted antigen until equilibrium, then 15 min on a well coated with GST-cCRY4CCE (1 μg/mL for C13 mAb); SM/TBS; affinity constants by fit to a model formula
GST-cCRY4CCE = biological target: T1, GST-cCRY4CCE; assay: ELISA; MBP-C13scFv-His refolded at various pH, dialysed against PBS pH 7.4, titrated on cCRY4CCE; detected with anti-6xHis antibody; EC50 by the Rodbard model
[2] = biological target: T2, recombinant chicken cryptochrome 4, …; assay: pull-down; renatured MBP-THETAL-His immobilised on Affi-Gel 15; crude extract mixed with the gel at 4 °C, washed, eluted by warming to 42 °C or 37 °C; details: one partner purified

| fold of the affinity constant at 4 °C over that at 37 °C [1] | binding result (GST-cCRY4CCE) | binding result [2] | Binder |
| --- | --- | --- | --- |
| 480 times |  |  | TKTKAARMTEQT [GST-CT9] |
|  | binds | binds | MBP-C13scFv-His (scFv, V domains shown, C13 variable light (VL); (GGGGS)3 linker; C13 variable heavy (VH); Order VL-linker-VH in pET-22b(+); also called MBP-THETAL-His; THETAL; not shown: MBP, N-terminal, kept; His6, C-terminal, kept) VH: EVKLEESGGGLVQPGGSLRLSCATSGFTFTDYYMSWVRQPPGKALEWLGFIRNKANVYTTEYSASVKGRFTISRDNSQSILYLQMNTLRAEDSATYYCARDGGYDDGGYAMDYWGQGTSVTVSS VL: DIVMTQSHKFMSTSVGDRVSITCKASQDVGTAVAWYQQKPGQSPKLLIYWASTRHTGVPDRFTGSGSGTDFTLTISNVQSEDLADYFCQQYSSYPYTFGGGTKLEIK |
